These are literature values, as cited in patent US20240173301A1, “2-IMINOBIOTIN FOR USE IN THE TREATMENT OF STROKE” (NEUROPHYXIA B.V., priority 2021, published 2024).

The conditions of the data set: acute ischemic stroke, intravenous thrombolysis.

B1: Alteplase (protein, UniProt P00750 36-562, looked up)
Tissue-type plasminogen …: SYQVICRDEKTQMIYQQHQSWLRPVLRSNRVEYCWCNSGRAQCHSVPVKSCSEPRCFNGGTCQQALYFSDFVCQCPEGFAGKCCEIDTRATCYEDQGISYRGTWSTAESGAECTNWNSSALAQKPYSGRRPDAIRLGLGNHNYCRNPDRDSKPWCYVFKAGKYSSEFCSTPACSEGNSDCYFGNGSAYRGTHSLTESGASCLPWNSMILIGKVYTAQNPSAQALGLGKHNYCRNPDGDAKPWCHVLKNRRLTWEYCDVPSCSTCGLRQYSQPQFRIKGGLFADIASHPWQAAIFAKHRRSPGERFLCGGILISSCWILSAAHCFQERFPPHHLTVILGRTYRVVPGEEEQKFEVEKYIVHKEFDDDTYDNDIALLQLKSDSSRCAQESSVVRTVCLPPADLQLPDWTECELSGYGKHEALSPFYSERLKEAHVRLYPSSRCTSQHLLNRTVTDNMLCAGDTRSGGPQANLHDACQGDSGGPLVCLNDGRMTLVGIISWGLGCGQKDVPGVYTKVTNYLDWIRDNMRP
notes: fibrinolytic drug
For the molecule B1, the “risk of a poor outcome” value is listed as “reduced the risk of a poor outcome”.
